Test: soluble on expression in E. coli; label from the status in PepcDB or PDB records

Sequence | soluble on expression in E. coli
IQVFLSARPPAPEVSKIYDNLILQYSPSKSLQMILRRALGDFENMLADGSFRAAPKSYPIPHTAFEKSIIVQTSRMFPVSLIEAARNHFDPLGLETARAFGHKLATAALACFFAREKATNS | soluble
MGSSHHHHHHGKTIFVIVPTNEEQVAFLEALAKQDELNFDWQNPPTEPGQPVVILIPSDMVEWFLEMLKAKGIPFTVYVEEGGSENLYFQGGGGGGQSPRDAHTHTHTHTDAHKHVLVHICVCVCACVCVSYSLHSTLALSLPAFSPHCHSLRLGFHVFRKQRARTKTAAVAEQRGLRWTHTTARTAKSGWPPRGHTDTHTHTHTHTHITWEYASSGMTLVFEARRLPFGSISEVYAASIQPIVALHALDKLPLWDRCMLVAVLPVVQQRHSASAAAAPPSTVVRPSLTRNDSDNADAAAASLSSATVRAANHEERVNASPELAGAPSLEDVALALTIVRALDELEVVYDSSISTRAELEQQQQQQPSLPAASLAEAPRRAFKQPKKTSEELLMEQLLQERFTDTAPYLLESSDEGGENSADAAVDVAMCFTVKGESLGIGSATIFGGHGYHP | not soluble
MAHHHHHHAYLPPNMAERLQMSSSSTEPTTTSSMLPAPHSSANMRHIEGLVVVPGVVKVSRSDVASQYTMPHTNNAPLLFSEPEHRAVDNSSGSNDAQLEPKDPHLGLMPHCLSCTLLTSAGAQEPDDVYGRSMPSSSAVGAVTTELECAVVPTLHASFTPGVSTSIMPAPTEAHSACGSRPLQQPRWGGNYDSGSQCVSFRGADRSNNVSGCGLRLVGDDVEWLQGSFEDSASSPREEVQLSWGHLQRQPCAGKSSAARAVPPALHDVREGTGGEKVLAAHHRFERAVQPQTQRQGVFPSADQENCQAAAMLWAAQQMAVFD | soluble
MELLSIQNLTKVYKVPAGFLRKKNFFALKEVSLSIKQGDFLAIVGESGSGKSTLGKIILRLEKPTKGKVSFKGKDIFSMGKEYTRKVSAVFQDPRSSLNPRMKVEEILEEPLIVHRVKGRKERVLKVLQRVRLSEELLEKRPLQISGGQAQRVAIARALILEPELIVADEPTASLDVSVQEEILELFKELNSKGISFFFVTHDIRVVEKVANMVGVIYAGILMELGKKEEVLKNPLHPYTKFLLENVPVRHPKDRKPLKYLQEEEVSIPEEGCPFYPRCPEAMEECKKFIRRSEVNGRLLACNLY | soluble
MELFLTGVVLKPKGLKGELKVKPVTDFPESFLTRREYYIGKTPEDAVLRKVQSARFHQGFAWLVFEGAGSREGAEALVGCGLYVTRDALVAMPDDRAYIHELIGLDVFDETEGRVGKISDVLQMPAHDVYEVDTGDRKVLIPAVEDFITETDLEKGMVRLKRFKEFLLEHHHHHH | soluble
SLTTQRLGLIMNGVTGRMGLNQHLIRSIVAIRDQGGVRLKNGDRIMPDPILVGRSAEKVEALAKRFNIARWTTDLDAALADKNDTMFFDAATTQARPGLLTQAINAGKHVYCEKPIATNFEEALEVVKLANSKGVKHGTVQDKLFLPGLKKIAFLRDSGFFGRILSVRGEFGYWVFEGGWQEAQRPSWNYRDEDGGGIILDMVCHWRYVLDNLFGNVQSVVCIGNTDIPERFDEQGKKYKATADDSAYATFQLEGGVIAHINMSWVTRVYRDDLVTFQVDGTHGSAVAGLSDCMIQARQATPRPVWNPDEKRLHDFYGDWQKLPDNVSYDNGFKEQWEMFIRHVYEDAPYKFTLLEGAKGVQLAECALKSWKERRWIDVAPIK | soluble
TPNKEDYLKCLYELGTRHNKITNKEIAQLMQVSPPAVTEMMKKLLAEELLIKDKKAGYLLTDLGLKLVSDLYRKHRLIEVFLVHHLGYTTEEIHEEAEVLEHTVSDHFVERLDQLLDYPKACPHGGTIPAKGELLVEKHKLTLEEAKEKGDYILARVHDNFDLLTYLERNGLQVGKTIRFLGYDDFSHLYSLEVDGQEIQLAQPIAQQIYVEKI | soluble
MGSDKIHHHHHHMHHESPIRRRKTRQIHVGKVAIGGDAPISVQSMTNTETRDIAATVAQIRRLEAVGADIVRISVPSMDAAEAFKTIRAQVETPLVADIHFDHRIALQVMEDGVDGLRINPGNIGSLDKTRLVVEMAKDKGIPIRIGVNAGSLEKDIQEKYGEPTPEALVESALRHVSILDELNFHDVKISVKASDIFLAVSAYRLLSEKVDYPLHLGITEAGGLRSGTVKSAIGLGLLLRDGIGDTIRVSLAADPVEEIRVGFDILKSLHLRQKGINLIACPSCSRQEFDVITTINALEARLEDILEPMDVSVIGCVVNGIGEAKEADIGLAGGDKRSILYYRGKQVDRVENNDIVDVLEKRIRAEIAERQATRHEG | not soluble
MSLAQTQLSYKNKTYQISYEILGDLSLPQILILHGWGADKKLMKQSFCPFLKDFCQIYMDLAGFGNSSVEEILNTQDYANITELFLKQKKLNVCFFMGHSFGGKVSTLLAKEKDTLILLSSAGILAKKSLKVRFKIRIFKILKLFGLGKFYRYFASKDGANLSPIMYETFKKVVDEDFSEIFAKQKAKSLIFWGKSDEATPLYCGEKMHQFLKNSTFYPLEGDHFFFLKHSAFIAQKIKEEGHHHHHH | soluble
MGHHHHHHGGHMSLPKFSPCLWFNTQAEEAANFYTTIFEKGAILSKTNYVNEEHQPQGTSLMTIEFTLANQTIIGLNGGPEFSFTPASSFFVECTTLPQTETLWKNLTADGQILMPFGEYPFSPLYGWVVDKFGVSWQVSFSGKEQTIVPTFMFANEKYGEAAKALSEWLAIFGPGEIIEKVEYEDGNIAQALFTLQEQPFRVMDARDKHDFDFTMAFSIYIDCENQEEIDRLWQQVTAKGKEWPCGWMEDQFGVSWQTGNPELKRYLSDSNPARANEVTKKLYQMKKIDLNQLKEVYDKYNHEGGS | soluble
MKRSTTDSDLAGDAHNETNKKMKSTEEEEIGFSNLDENLVYEVLKHVDAKTLAMSSCVSKIWHKTAQDERLWELICTRHWTNIGCGQNQLRSVVLALGGFRRLHSLYLWPLSKPNPRARFGKDELKLTLSLLSIRYYEKMSFTKRPLPESK | soluble
AKIYDKNGELVKTLDNGQRHEHVNIKDVPKDMKNAVLATEDNRFYQHGALDYKRLFGAIGKNLTGGFGSQGASTLTQQVVKDSFLTQQKSIGRKAQEAYLSYRLEQEYSKDEIFQVYMNKIYYSDGVTGIKAAAKYYFNKDMKDLNLAEEAYLAGLPQVPNLYNIYNNP | not soluble
SDLSALRVEEVQNVINAMQKILECPICLELIKEPVSTKCDHIFCKFCMLKLLNQKKGPSQCPLCKNDITKRSLQESTRFSQLVEELLKIICAFQLDTGLEYANSYNFAKK | soluble
MGSDKIHHHHHHMKKILYLHAGAELYGADKVLLELIKGLDKNEFEAHVILPNDGVLVPALREVGAQVEVINYPILRRKYFNPKGIFDYFISYHHYSKQIAQYAIENKVDIIHNNTTAVLEGIYLKRKLKLPLLWHVHEIIVKPKFISDSINFLMGRFADKIVTVSQAVANHIKQSPHIKDDQISVIYNGVDNKVYYQSDARSVRERFDIDEEALVIGMVGRVNAWKGQGDFLEAVAPILEQNPKAIAFIAGSAFEGEEWRVVELEKKISQLKVSSQVRRIDYYANTTELYNMFDIFVLPSTNPDPLPTVVLEAMACGKPVVGYRHGGVCEMVKEGVNGFLVTPNSPLNLSKVILQLSENINLRKKIGNNSIERQKEHFSLKSYVKNFSKVYTSLKVY | not soluble
MTGTLAPEAMPLLSVRKLTKLFGNFAACNGIDLDIAPGEIHALLGENGAGKSTLVKMLFGVLSPTEGDIIWQGQPVSVGSPSEARRLGIGMVFQHFSLFEALTVAENIALSLDPKISLKEIAREAEQLSRAYGLPLDPNAHVADLSVGERQRIEIVRALLQNPRLIILDEPTSVLTPQEADKLFETLAKLKAEGRSVLYISHRLEEVQRICDRATVLRHGKVTGACDPRKETPASLARMMVGSDVASVSRATGEALGAPQIEVMGLSVAPRTPFAVALKSISMNVRAGEVLAIAGVAGNGQGELFDALSGEYPVYNNDAIHLRGKPVGRLGINGRRLMGAGFVPEERHGHAAVPGMSLSDNLLLARSRSDRKAFLTGGFLRIVRGSTIKAAARRISETMDVRKSGADPLAGSLSGGNLQKFIVGRELDRQPSVLVVNQPTWGVDAGAASRIRQALVDLAKAGSAVIVISQDLDEIFEVATNIAVISDGMLSEAHPVEEMTLEKIGLLMGGIHTSQSGAAQHAHLEHHHHHH | not soluble
SEEVEAEEPQEFSHRQRLKAAVHYTVGCLCQEVTLNKQVNFSKQTIAAISEVTFRQCENFAKDLEMFARWVEKLAV | soluble
MLVLGDAHATTPGRRRALFAAYRAANESVAVQAGDLMYYDLPVQTYFIGGNNEDFDAIDALRNGRVESDDVANATLLNSTAATVDGRRVAGLTGNYAPTQFDKPRAVLRGDRRRHFVRSDVEAVMDLDDIDIFVAHEAPNGLPVEEDYDVGCQHIDDILDALQPSLCLVGHHHQHAECDYGDTHVVGLEPAWESYYVVDPDTLAVTRHDTPPALEHHHHHH | not soluble
MSEIKQLPTRDEVPTPLTWDLTKIFKDDAAFDVAYNQLIEELNQAESFKGTLGDGAEAFLAALEYVLDVYRKVETLYVYSHLKNDQDTTNTAYQALYARASSLYAQVSEAVSWFDPEVLTLSDEQIWGYFEEQPKLAVYRHYIQNILDERPHVLSMEQEALLAGASEIFGASSNTFSILNNADLEFPTVQNAEGETIQLSHGVYGQLMESVDPSVREAAFKGLYKVYKQFRNTLASTLGAHVKTHNYKAKIRNYDSARAASLASNHIPESVHETLVAVVNKHLPLLHRYVKLRKKLLNVEELHMYDLYAPLLGEAPIRYSYEEAKEKAIEALKPLGEDYLSIVKEAFSSRWIDVIENQGKRSGAYSSGAYDTAPYILMNWHDSLDQLFTLVHEMGHSVHSYYTRNNQPYVYGDYSIFLAEIASTTNENILTEYLLQTETDPKVRAYVLNHYLDGFKGTIFRQTQFAEFEHFIHTEDAKGTPLTSEYLSEYYGELNAKYYGPEVVRDEEISYEWARIPHFYYNYYVYQYATGFSAASALSKHILAGEEGALENYLNYLKAGSSDFPIEVMKKAGVDMTQAAYIEDAMKVFEERLTELEALVEKL | not soluble
MKKIDRVIESIQSRITEGRLKPGQKLPSIRQAVDEFGVSKNTVIEAYERLSARGLIRSVHGAGFFVCASTPAPLSKATQPAHIVEAVDRLTLLTAQLDQEKLPVRVGDGRPPQSWMNDALPLRMKGNIFKNFVGDPSGYGGVSGHLQLRELIAARSNRADMSVHPDQIVTTFGANHALDLIIRRYLEPGDVVLVDDPGYYPLLGKFKLAKIRAIGVPRTPTGPDLDVMETLAAAHGPKMFFTQSTCQNPTGSSMSLPVAHGVLQVAQRFGLMVIDNDPFTDLPGNAGVPLSALDAFNSVIAISSFSKLLSASFRVGYVIARPEVARELTELKLLTVVNSSRFSEMVIAELIKSQRYGRHLNKLVNRLEEARRDYHRKVRKLGLDVFCAQETGYYSFLQLPHTVDEGQLVRKASAAGIMLAPGRLFAVDENPARPALRINVTRADDPRFYRFLKRQVIDGQV | not soluble
MSPVDFKDKVVIITGAGGGLGKYYSLEFAKLGAKVVVNDLGGALNGQGGNSKAADVVVDEIVKNGGVAVADYNNVLDGDKIVETAVKNFGTVHVIINNAGILRDASMKKMTEKDYKLVIDVHLNGAFAVTKAAWPYFQKQKYGRIVNTSSPAGLYGNFGQANYASAKSALLGFAETLAKEGAKYNIKANAIAPLARSRMTESIMPPPMLEKLGPEKVAPLVLYLSSAENELTGQFFEVAAGFYAQIRWERSGGVLFKPDQSFTAEVVAKRFSEILDYDDSRKPEYLKNQYPFMLNDYATLTNEARKLPANDASGAPTVSLKDKVVLITGAGAGLGKEYAKWFAKYGAKVVVNDFKDATKTVDEIKAAGGEAWPDQHDVAKDSEAIIKNVIDKYGTIDILVNNAGILRDRSFAKMSKQEWDSVQQVHLIGTFNLSRLAWPYFVEKQFGRIINITSTSGIYGNFGQANYSSSKAGILGLSKTMAIEGAKNNIKVNIVAPHAETAMTLSIMREQDKNLYHADQVAPLLVYLGTDDVPVTGETFEIGGGWIGNTRWQRAKGAVSHDEHTTVEFIKEHLNEITDFTTDTENPKSTTESSMAILSAVGGD | soluble

Reference: the DeepSol protein solubility set
